Results from patent publication US20220226430A1.
Several values for one entry are separate records, joined by “and”; a condition that tells them apart may be missing. Equal values may be shown once.

Molecular target: TcdB from C. difficile strain M68 (Clostridium difficile strain M68)
Assay: cell-based or functional assay

Row | Binder | EC50 against TcdB (in vitro neutralization) | TcdB neutralization EC50 (Vero cells, CellTiterGlo) | fold more efficacious than bezlotoxumab at inhibiting TcdB (CellTiter-Glo assay) | fold higher neutralization activity than D16 alone
1 | DARPin dimer DLD-4 (designed binder) GSDLGKKLLEAARAGQDDEVRILMANGADVNADDRIGMTPLHLAAIGGHLEIVEVLLKNGADVNADDVHGRTPLHLAAGRGHLEIVEVLHGADVNAPDRWGRTPLHLAAHHGHLEIVEVLLKYGADVNAQDKFGKTAFDISIDNGNEDLAEILQSSSEFGGGGSGGGGSGGGGSASDLGKKLLEAARAGQDDEVRILMANGADVNATDHLGVTPLHLAAVLGHLEIVEVLLKHGADVNAYDILGRTPLHLAAWRGHLEIVEVLLKYGADVNADDTSGTTPLHLAAGEGHLEIVEVLLKYGADVNAQDKFGKTAFDISIDNGNEDLAEILQSSS | 0.02 nM | 0.016 nM | 33 fold | –
2 | dimeric DARPin U3D16 (designed binder) GSDLGKKLLEAARAGQDDEVRILMANGADVNADDRIGMTPLHLAAIGGHLEIVEVLLKNGADVNADDVHGRTPLHLAAGRGHLEIVEVLHGADVNAPDRWGRTPLHLAAHHGHLEIVEVLLKYGADVNAQDKFGKTAFDISIDSGNEDLAEILQSSSGGGGSGGGGSGGGGSGSDLGKKLLEAARAGQDDEVRILMANGADVNAADRYGPTPLHLAAYRGHLEIVEVLLKHGADVNAKDVLGWTPLHLAAWIGHLEIVEVLLKNGADVNARDRTGETPLHLAAAIGHLEIVEVLLKNGADVNAQDKFGKTAFDISIDNGNEDLAEILQSSS | – | – | – | 10 fold and 20 fold
